In paper PMC6771245, “CMKLR1-targeting peptide tracers for PET/MR imaging of breast cancer” (Theranostics, 2019):
*1 amine or outer side, *2 acyl side, *3 side chain or, on linkers, in order; H or OH if unused. Where a SMILES comes first, the peptide text is derived from it. [ ]: non-standard residue; d: D form. The star is where a group is joined. X1 = O=C(O)CN1CCN(CC(=O)O)CCN(CC(=O)NCCCOCCOCCOCCCN*)CCN(CC(=O)O)CC1; DOTA = O=C(O)CN1CCN(CC(=O)O)CCN(CC(=O)*)CCN(CC(=O)O)CC1; NH(CH2)9CO = O=C(CCCCCCCCCN[*:1])[*:2]; Hyp = O=C(O)[C@@H]1C[C@@H](O)CN1; Tic = O=C(O)[C@@H]1Cc2ccccc2CN1; Cha = N[C@@H](CC1CCCCC1)C(=O)O; Cit = NC(=O)NCCC[C@H](N)C(=O)O; Suc = O=C(CCC(=O)[*:2])[*:1]; Octanoyl = CCCCCCCC(=O)*; Ahx = NCCCCCC(=O)O

What was measured:
[1] = system: DU4475/A549 xenograft model; test: in vivo; conditions: mouse
Source text: (§1) For in vivo experiments, at least 8-week-old female athymic NMRI-Foxn1^nu /Foxn1^nu mice (Janvier Labs, Saint-Berthevin, France) were used. Animal care followed institutional guidelines and all experiments were approved by local animal research authorities. For the generation of tumor xenografts, 5 x 10^6 cells of both DU4475 and A549 cells were inoculated subcutaneously into the right and left shoulder, respectively (1:1 phosphate-buffered saline [PBS]/Matrigel Basement Membrane Matrix High Concentration, Corning, Corning, USA). Part of the animals received SW13 lung cancer cells as a CMKLR1-negative control tumor. For the analysis of biodistribution, only data of […] and A549 xenograft tumors are used. Tumors were allowed to grow for two to four weeks (tumor volume > 100 mm^3) after cell inoculation.
(§2) Radiolabeling experiments were performed on a Modular Lab PharmTracer synthesis module (Eckert & Ziegler, Berlin, Germany) which allows fully automated cassette-based labeling of gallium tracers utilizing a pharmaceutical grade ^68Ge/^68Ga generator (GalliaPharm, 1.85 GBq, good manufacturing practice [GMP]-certified; Eckert & Ziegler GmbH, Berlin, Germany). Cassettes were GMP-certified and sterile. They were used without pre-conditioning of the cartridges. The gallium generator was eluted with aqueous HCl (0.1 M, 7 mL) and the eluate was purified on an ion-exchange cartridge followed by elution using 1 mL of 0.1 M HCl in acetone. The peptide-DOTA conjugate (50 µg from a stock solution 1 mg/mL in 10% dimethyl sulfoxide [DMSO] in water) was mixed with 500 µL 0.1 M HEPES buffer (pH 7) and heated for 500 seconds at 95 °C. After the reaction, the mixture was passed through a C-18 cartridge for purification and the tracer was eluted from the cartridge with ethanol. In order to control the quality of radiolabeling, the radiochemical yield, purity, and specific activity for all five peptide-DOTA conjugates and each individual labeling experiment was determined. Overall, a radiochemical yield of 82.1% ± 6.7%, a radiochemical purity of 98.1 ± 4.6% and a molar activity of 8.6 GBq/µmol ± 2.7 GBq/µmol was achieved (Table S1). Before animal injection, the activity was equilibrated to neutral pH using 1 M sodium hydrogen carbonate. It was further diluted with saline to ≤ 10% ethanol.
(§3) Tumor-bearing mice were injected with approximately 10 MBq of ^68Ga-labeled DOTA-peptide or 1 MBq of ^177Lu-labeled DOTA-peptide to the tail vein via a catheter. Mice were sacrificed and dissected one or two hours after injection. Tumor, blood, stomach, pancreas, small intestine, colon, liver, spleen, kidney, heart, lung, muscle and femur samples were weighed and uptake of radioactivity was measured by a gamma counter. To determine the effect of unlabeled ligand on the tumor uptake, 200 nmol CG34 peptide (100-fold excess) was co-injected.

[2] = in vivo; conditions: female, mouse, iv, 10 MBq, total radioactivity
Source text: as §1, §2, §3

[3] = athymic NMRI-Foxn1^nu/Foxn1^nu, A549 tumor uptake
[4] = athymic NMRI-Foxn1^nu/Foxn1^nu, DU4475 tumor uptake
[5] = athymic NMRI-Foxn1^nu/Foxn1^nu, blood uptake
[6] = athymic NMRI-Foxn1^nu/Foxn1^nu, heart uptake
[7] = athymic NMRI-Foxn1^nu/Foxn1^nu, kidney uptake
[8] = athymic NMRI-Foxn1^nu/Foxn1^nu, liver uptake
[9] = athymic NMRI-Foxn1^nu/Foxn1^nu, lung uptake
[10] = athymic NMRI-Foxn1^nu/Foxn1^nu, muscle uptake
[11] = athymic NMRI-Foxn1^nu/Foxn1^nu, spleen uptake
[12] = athymic NMRI-Foxn1nu/Foxn1nu, colon uptake
[13] = athymic NMRI-Foxn1nu/Foxn1nu, femur uptake
[14] = athymic NMRI-Foxn1nu/Foxn1nu, muscle uptake
[15] = athymic NMRI-Foxn1nu/Foxn1nu, pancreas uptake
[16] = athymic NMRI-Foxn1nu/Foxn1nu, small intestine uptake
[17] = athymic NMRI-Foxn1nu/Foxn1nu, spleen uptake
[18] = athymic NMRI-Foxn1nu/Foxn1nu, stomach uptake
[19] = athymic NMRI-Foxn1nu/Foxn1nu, tumor-to-blood ratio
[20] = athymic NMRI-Foxn1nu/Foxn1nu, tumor-to-kidney ratio
[21] = athymic NMRI-Foxn1nu/Foxn1nu, tumor-to-liver ratio
[22] = athymic NMRI-Foxn1nu/Foxn1nu, tumor-to-muscle ratio
[23] = athymic NMRI-Foxn1nu/Foxn1nu, tumor-to-pancreas ratio

SMILES | DU4475 tumor uptake after two hours as % of the 1 h-value [1] | higher uptake in CMKLR1-positive DU4475 tumors than in target-negative A549 tumors [1] | tissue uptake at 1 h [2, 3] | tissue uptake at 1 h [2, 4] | tissue uptake at 2 h [2, 4] | tissue uptake at 1 h [2, 5] | tissue uptake at 2 h [2, 5] | tissue uptake at 1 h [2, 6] | tissue uptake at 2 h [2, 6] | tissue uptake at 1 h [2, 7] | tissue uptake at 2 h [2, 7] | tissue uptake at 1 h [2, 8] | tissue uptake at 2 h [2, 8] | tissue uptake at 1 h [2, 9] | tissue uptake at 2 h [2, 9] | tissue uptake at 1 h [2, 10] | tissue uptake at 1 h [2, 11] | tissue uptake at 1 h [2, 12] | tissue uptake at 2 h [2, 12] | tissue uptake at 1 h [2, 13] | other results
C[C@@H](NC(=O)[C@H](Cc1ccccc1)NC(=O)[C@H](CCCNC(N)=O)NC(=O)CNC(=O)[C@@H]1C[C@@H](O)CN1C(=O)[C@H](CC1CCCCC1)NC(=O)[C@H](Cc1ccc(O)cc1)NC(=O)CCCCCCCCCNC(=O)CN1CCN(CC(=O)O)CCN(CC(=O)O)CCN(CC(=O)O)CC1)C(=O)N1Cc2ccccc2C[C@H]1C(=O)N[C@@H](CO)C(=O)O [[^68Ga]Ga-DOTA-ADX-CG34, metal not drawn] ({DOTA}-[NH(CH2)9CO]Y[Cha][Hyp]G[Cit]F[dA][Tic]S-OH) | approx. 68% | 2.3 fold | 2.7 %ID/g | 6.2 %ID/g | 4.2 %ID/g | 2.8 %ID/g | 0.8 %ID/g | 2.2 %ID/g | 1.2 %ID/g | 10.3 %ID/g | 5.5 %ID/g | 14.2 %ID/g | 12.5 %ID/g | 7.1 %ID/g | 3.9 %ID/g | 1.1 %ID/g | 7.8 %ID/g | 3.2 %ID/g | 2.3 %ID/g | 1.3 %ID/g | tissue uptake at 2 h [2, 13]: 0.7 %ID/g; tissue uptake at 2 h [2, 14]: 0.6 %ID/g; tissue uptake at 1 h [2, 15]: 1.7 %ID/g; tissue uptake at 2 h [2, 15]: 1.1 %ID/g; tissue uptake at 1 h [2, 16]: 3.8 %ID/g; tissue uptake at 2 h [2, 16]: 4.4 %ID/g; tissue uptake at 2 h [2, 17]: 5.4 %ID/g; tissue uptake at 1 h [2, 18]: 2.2 %ID/g; tissue uptake at 2 h [2, 18]: 1.5 %ID/g; tissue to tissue ratio at 1 h [2, 19]: 3; tissue to tissue ratio at 2 h [2, 19]: 5.7; tissue to tissue ratio at 1 h [2, 20]: 0.8; tissue to tissue ratio at 2 h [2, 20]: 0.8; tissue to tissue ratio at 1 h [2, 21]: 0.4; tissue to tissue ratio at 2 h [2, 21]: 0.3; tissue to tissue ratio at 1 h [2, 22]: 6.3; tissue to tissue ratio at 2 h [2, 22]: 7.2; tissue to tissue ratio at 1 h [2, 23]: 3.9; tissue to tissue ratio at 2 h [2, 23]: 3.9
C[C@@H](NC(=O)[C@H](Cc1ccccc1)NC(=O)[C@H](CCCNC(N)=O)NC(=O)CNC(=O)[C@@H]1C[C@@H](O)CN1C(=O)[C@H](CC1CCCCC1)NC(=O)[C@H](Cc1ccc(O)cc1)NC(=O)CCCCCNC(=O)CN1CCN(CC(=O)O)CCN(CC(=O)O)CCN(CC(=O)O)CC1)C(=O)N1Cc2ccccc2C[C@H]1C(=O)N[C@@H](CO)C(=O)O [[^68Ga]Ga-DOTA-AHX-CG34, metal not drawn] ({DOTA-Ahx}-Y[Cha][Hyp]G[Cit]F[dA][Tic]S-OH) | approx. 96% | 1.7 fold | 3 %ID/g | 5.1 %ID/g | 4.9 %ID/g | 1.2 %ID/g | 0.4 %ID/g | 1.2 %ID/g | 1.1 %ID/g | 6.5 %ID/g | 6.6 %ID/g | 2.4 %ID/g | 2.4 %ID/g | 4.2 %ID/g | 2.8 %ID/g | 0.7 %ID/g | 6.3 %ID/g | 2.7 %ID/g | 2.6 %ID/g | 0.8 %ID/g | tissue uptake at 2 h ([2]; athymic NMRI-Foxn1nu/Foxn1nu, A549 tumor uptake): 1.4 %ID/g; tissue uptake at 2 h [2, 13]: 0.7 %ID/g; tissue uptake at 2 h [2, 14]: 0.5 %ID/g; tissue uptake at 1 h [2, 15]: 1 %ID/g; tissue uptake at 2 h [2, 15]: 0.8 %ID/g; tissue uptake at 1 h [2, 16]: 2.1 %ID/g; tissue uptake at 2 h [2, 16]: 2 %ID/g; tissue uptake at 2 h [2, 17]: 5 %ID/g; tissue uptake at 1 h [2, 18]: 1.7 %ID/g; tissue uptake at 2 h [2, 18]: 1.3 %ID/g; tissue to tissue ratio at 1 h [2, 19]: 5.9; tissue to tissue ratio at 2 h [2, 19]: 13.3; tissue to tissue ratio at 1 h [2, 20]: 0.9; tissue to tissue ratio at 2 h [2, 20]: 0.7; tissue to tissue ratio at 1 h [2, 21]: 2.3; tissue to tissue ratio at 2 h [2, 21]: 2.2; tissue to tissue ratio at 1 h [2, 22]: 8.5; tissue to tissue ratio at 2 h [2, 22]: 11.4; tissue to tissue ratio at 1 h [2, 23]: 5.6; tissue to tissue ratio at 2 h [2, 23]: 6.2
CCCCCCCC(=O)NCCCC[C@H](NC(=O)CN1CCN(CC(=O)O)CCN(CC(=O)O)CCN(CC(=O)O)CC1)C(=O)N[C@@H](Cc1ccc(O)cc1)C(=O)N[C@@H](CC1CCCCC1)C(=O)N1C[C@H](O)C[C@H]1C(=O)NCC(=O)N[C@@H](CCCNC(N)=O)C(=O)N[C@@H](Cc1ccccc1)C(=O)N[C@H](C)C(=O)N1Cc2ccccc2C[C@H]1C(=O)N[C@@H](CO)C(=O)O [[^68Ga]Ga-DOTA-KCap-CG34, metal not drawn] ({DOTA}-K(Octanoyl)Y[Cha][Hyp]G[Cit]F[dA][Tic]S-OH) | approx. 88% | 1.4 fold | 2.3 %ID/g | 3.3 %ID/g | 2.9 %ID/g | 0.6 %ID/g | 0.2 %ID/g | 1.1 %ID/g | 0.8 %ID/g | 5.8 %ID/g | 6.5 %ID/g | 2.2 %ID/g | 1.8 %ID/g | 1.7 %ID/g | 1.2 %ID/g | 0.6 %ID/g | 4.9 %ID/g | 2.4 %ID/g | 1.7 %ID/g | 0.6 %ID/g | tissue uptake at 2 h [2, 13]: 0.5 %ID/g; tissue uptake at 2 h [2, 14]: 0.4 %ID/g; tissue uptake at 1 h [2, 15]: 0.9 %ID/g; tissue uptake at 2 h [2, 15]: 0.7 %ID/g; tissue uptake at 1 h [2, 16]: 2.3 %ID/g; tissue uptake at 2 h [2, 16]: 1.9 %ID/g; tissue uptake at 2 h [2, 17]: 4 %ID/g; tissue uptake at 1 h [2, 18]: 1.4 %ID/g; tissue uptake at 2 h [2, 18]: 1.1 %ID/g; tissue to tissue ratio at 1 h [2, 19]: 5.6; tissue to tissue ratio at 2 h [2, 19]: 18.2; tissue to tissue ratio at 1 h [2, 20]: 0.7; tissue to tissue ratio at 2 h [2, 20]: 0.6; tissue to tissue ratio at 1 h [2, 21]: 1.6; tissue to tissue ratio at 2 h [2, 21]: 1.8; tissue to tissue ratio at 1 h [2, 22]: 6.6; tissue to tissue ratio at 2 h [2, 22]: 7.2; tissue to tissue ratio at 1 h [2, 23]: 3.7; tissue to tissue ratio at 2 h [2, 23]: 4.3
CSCC[C@H](NC(=O)CNC(=O)[C@@H]1CCCN1C(=O)[C@H](CC1CCCCC1)NC(=O)[C@H](Cc1ccc(O)cc1)NC(=O)CCCCCNC(=O)CN1CCN(CC(=O)O)CCN(CC(=O)O)CCN(CC(=O)O)CC1)C(=O)N[C@@H](Cc1ccc(O)cc1)C(=O)N[C@@H](C)C(=O)N[C@@H](Cc1ccccc1)C(=O)N[C@H](Cc1ccccc1)C(=O)O [[^68Ga]Ga-DOTA-AHX-CG36, metal not drawn] ({DOTA-Ahx}-Y[Cha]PGMYAF[dF]-OH) |  |  |  |  |  |  |  |  |  |  |  | 6.4 %ID/g | 4.9 %ID/g |  |  |  |  |  |  |  | difference in uptake between target-positive and target-negative tumor [1]: no clear difference in uptake between target-positive and target-negative tumor
C[C@@H](NC(=O)[C@H](Cc1ccccc1)NC(=O)[C@H](CCCNC(N)=O)NC(=O)CNC(=O)[C@@H]1C[C@@H](O)CN1C(=O)[C@H](CC1CCCCC1)NC(=O)[C@H](Cc1ccc(O)cc1)NC(=O)CCC(=O)NCCCOCCOCCOCCCNC(=O)CN1CCN(CC(=O)O)CCN(CC(=O)O)CCN(CC(=O)O)CC1)C(=O)N1Cc2ccccc2C[C@H]1C(=O)N[C@@H](CO)C(=O)O [[^68Ga]Ga-DOTA-TTDS-CG34, metal not drawn] ({X1-Suc}-Y[Cha][Hyp]G[Cit]F[dA][Tic]S-OH) |  |  |  |  |  |  |  |  |  |  |  |  |  |  |  |  |  |  |  |  | difference in uptake between target-positive and target-negative tumor [1]: no clear difference in uptake between target-positive and target-negative tumor
